Our source for the Kd values is patent US20190352341 (published 2019).

Like-named read-outs stand apart in the source and are kept apart here. Square brackets hold non-standard residues; d marks the D form. Ends that are not written are not given here. Met(O) = CS(=O)CC[C@H](N)C(=O)O; pS = N[C@@H](COP(=O)(O)O)C(=O)O

The target in assay [1] is T1, HSC70 (bovine, UniProt P19120). The assay is described as follows: SPR, 25C pH 7.4. (In SPR one partner is held on a chip, and binding of the other changes the refractive index at the surface.)
T1 sequence (P19120 2-650): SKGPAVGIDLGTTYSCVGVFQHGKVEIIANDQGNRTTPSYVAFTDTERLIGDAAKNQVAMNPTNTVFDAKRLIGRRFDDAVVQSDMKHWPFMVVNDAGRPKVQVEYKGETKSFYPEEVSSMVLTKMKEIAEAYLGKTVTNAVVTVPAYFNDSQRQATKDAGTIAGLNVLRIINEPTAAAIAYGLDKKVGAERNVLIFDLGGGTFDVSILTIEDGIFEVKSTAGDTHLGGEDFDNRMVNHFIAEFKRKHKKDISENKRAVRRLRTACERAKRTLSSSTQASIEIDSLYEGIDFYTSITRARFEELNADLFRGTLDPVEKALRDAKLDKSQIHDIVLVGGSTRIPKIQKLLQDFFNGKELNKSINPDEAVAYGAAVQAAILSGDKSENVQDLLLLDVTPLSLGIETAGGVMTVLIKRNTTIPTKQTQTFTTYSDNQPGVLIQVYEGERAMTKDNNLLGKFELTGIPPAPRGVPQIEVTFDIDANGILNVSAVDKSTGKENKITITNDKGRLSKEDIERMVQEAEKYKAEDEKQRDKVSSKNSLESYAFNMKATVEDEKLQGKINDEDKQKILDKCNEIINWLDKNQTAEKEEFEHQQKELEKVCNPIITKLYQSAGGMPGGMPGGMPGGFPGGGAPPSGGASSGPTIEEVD
Assay [2] deals with T1, HSC70. The assay is described as follows: SPR, 25C pH 7.4. The source holds these as a separate data set.

Consider RIHMVYSKR[pS]GKPRGYAFIEY [P140], for which the Kd with HSC70 [1] is 6.94 µM.
RIH[Met(O)]VYSKR[pS]GKPRGYAFIEY [P140(MO)]: the Kd in the assay with HSC70 [2] is 1.91 µM.

A word on the Kd: it is the constant that tells how readily two partners part at equilibrium. A lower Kd goes with higher affinity.
